# Laboratory results taken from publication PMC8396345, “Target Affinity and Structural Analysis for a Selection of Norovirus Aptamers”.
# B1: M1 (ssDNA)
# DNA: TGTTTATGGGGATAAACGTATCTAATTCGTGTACTAATCA
# B2: M6-2 (ssDNA)
# DNA: TGGGAAGAGGTCCGGTAAATGCAGGGTCAGCCCGGAGAG
# B3: SMV19 (ssDNA)
# DNA: CACCAGTGTGTTGAGGTTTGAGCACACTGATAGAGTGTCA
# B4: SMV21 (ssDNA)
# DNA: CCATGTTTTGTAGGTGTAATAGGTCATGTTAGGGTTTCTG
# B5: Buf-2 (structured_DNA)
# DNA: GAAATTGGGTTCGGGTTTGGGTTGGGATTACTTAGCGATG
# B6: AG3 (ssDNA)
# DNA: GCTAGCGAATTCCGTACGAAGGGCGAATTCCACATTGGGCTGCAGCCCGGGGGATCC
# B7: Beier (ssDNA)
# DNA: GTCTGTAGTAGGGAGGATGGTCCGGGGCCCCGAGACGACGTTATCAGGC
# How the values were obtained:
# [1] = molecular target: T1, norovirus GI.1 VLP (major capsid protein VP1) (Norovirus GI.1, UniProt Q83884 1-530); experiment: filter binding; <10% bound at 1500 nM; FRA: 1 nM 32P-aptamer, 0-1500 nM VLP, 60 min, each aptamer's original selection buffer (M1, M6-2, SMV19, SMV21: PBS pH 7.4; others in Table S1, not in material); FRA temperature not stated; pull-down at room temperature; conditions: protein: recombinant; chain copies: 180; label: 5'-32P (FRA); B-DNA-like CD
# [2] = molecular target: T1, norovirus GI.1 VLP (major capsid …); experiment: filter binding; Kd not determined; FRA: 1 nM 32P-aptamer, 0-1500 nM VLP, 60 min, each aptamer's original selection buffer (M1, M6-2, SMV19, SMV21: PBS pH 7.4; others in Table S1, not in material); FRA temperature not stated; pull-down at room temperature; conditions: protein: recombinant, chain copies: 180, label: 5'-32P (FRA)
# T1 sequence (Q83884 whole entry): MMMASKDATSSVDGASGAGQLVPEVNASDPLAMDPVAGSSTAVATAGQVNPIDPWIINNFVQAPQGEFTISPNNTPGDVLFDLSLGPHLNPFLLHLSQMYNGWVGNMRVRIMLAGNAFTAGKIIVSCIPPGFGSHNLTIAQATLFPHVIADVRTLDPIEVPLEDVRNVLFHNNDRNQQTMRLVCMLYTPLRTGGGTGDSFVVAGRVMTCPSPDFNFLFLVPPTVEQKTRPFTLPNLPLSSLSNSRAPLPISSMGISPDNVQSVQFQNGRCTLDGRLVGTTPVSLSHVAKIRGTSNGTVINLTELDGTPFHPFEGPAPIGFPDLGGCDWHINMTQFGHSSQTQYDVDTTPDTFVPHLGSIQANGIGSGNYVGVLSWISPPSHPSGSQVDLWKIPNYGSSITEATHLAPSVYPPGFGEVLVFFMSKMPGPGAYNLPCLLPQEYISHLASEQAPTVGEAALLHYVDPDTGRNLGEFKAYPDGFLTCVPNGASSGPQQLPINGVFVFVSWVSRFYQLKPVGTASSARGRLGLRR
Binder,binding result ([2]; B-DNA-like CD),also measured
B1,–,binding result [1]: no binding
B2,–,binding result [1]: no binding
B3,no binding,–
B4,no binding,–
B5,–,binding result ([2]; inter- or intramolecular not resolved): no binding
B6,no binding,–
B7,no binding,–
